In test [1] the target is HLA-A2.1 molecules expressed by 174CEM.T2 cells (human). In words: T2 HLA-A2.1 stabilisation, flow cytometry (BB7.2), peptide 200 ug/ml. In general terms: Flow cytometry measures light scatter and fluorescence of single cells or particles in a stream.
For test [2], the target named is HLA-A1 molecules isolated from the EBV transformed cell line Steinlin (human).
In test [3] the target is HLA-A3.2 molecules isolated from the EBV transformed cell line GM3107 (human).
The target in test [4] is HLA-A11.2 molecules isolated from the cell line BVR (human).
The target in test [5] is HLA-A24 molecules isolated from the EBV transformed cell line KT3 (human).
The target of test [6] is HLA-A2.1 molecules isolated from the EBV transformed cell line JY (human).

Consider 32 substances from patent publication US7364741.

In test [1], “[…] (residues 25-33 of HPV16 protein E6) (peptide; other documents disagree on this pair)” yielded an FI (Fluorescence Index) of 0.6 and an MF (mean fluorescence) of 108.
Taken in the same sequence, the figures for “[…] (residues 82-90 of HPV16 protein E7) (peptide; other documents disagree on this pair)” were 0.8 and 119.
Regarding “… (residues 19-27 of HPV16 protein E7), synthesized with alanine instead of cysteine (peptide; other documents disagree on this pair)”, the binding ratio to standard in test [2] was found to be 0.023.
For “… (residues 33-41 of HPV16 protein E6), synthesized with alanine instead of cysteine (peptide; other documents disagree on this pair)”, the results for the binding ratio to standard in test [3] and in test [4] were 1.5 and 6.7, respectively.
In the same order, the values of “… (residues 37-45 of HPV16 protein E6) with alanine instead of cysteine (peptide; other documents disagree on this pair)” are 0.032 and 0.045.
Consider “… (residues 38-46 of HPV16 protein E6), synthesized with alanine instead of cysteine (peptide; other documents disagree on this pair)”, for which the values for the binding ratio to standard in test [3], in test [4] and in test [5] were 0.0012, 0.0022 and 0.0011, respectively.
Regarding “… (residues 51-59 of HPV16 protein E7), synthesized with alanine instead of cysteine (peptide; other documents disagree on this pair)”, the binding ratio to standard in test [3] is 0.026; in test [4] it was 0.001.
As for “… (residues 52-60 of HPV16 protein E6), synthesized with alanine instead of cysteine (peptide; other documents disagree on this pair)”, the binding ratio to standard in test [6] is 0.37.
For “… (residues 52-60 of HPV16 protein E7), synthesized with alanine instead of cysteine (peptide; other documents disagree on this pair)”, the binding ratio to standard in test [3] amounted to 0.0067; in test [4], 0.006.
With “… (residues 58-66 of HPV16 protein E7), synthesized with alanine instead of cysteine (peptide; other documents disagree on this pair)”, the binding ratio to standard in test [3] stood at 0.0016; in test [4], 0.011.
Turning to “… (residues 60-68 of HPV16 protein E7), synthesized with alanine instead of cysteine (peptide; other documents disagree on this pair)”, in test [3], the binding ratio to standard was determined as 0.0012.
For the substance “… (residues 66-74 of HPV16 protein E6), synthesized with alanine instead of cysteine (peptide; other documents disagree on this pair)”, the binding ratio to standard in test [5] turned out to be 0.0055.
With “… (residues 67-75 of HPV16 protein E6), synthesized with alanine instead of cysteine (peptide; other documents disagree on this pair)”, the binding ratio to standard in test [3] amounted to 0.0012; in test [4], 0.0074.
In the same order, the values of “… (residues 68-76 of HPV16 protein E6), synthesized with alanine instead of cysteine (peptide; other documents disagree on this pair)” are 0.0056 and 0.0037.
For “… (residues 69-77 of HPV16 protein E6), synthesized with alanine instead of cysteine (peptide; other documents disagree on this pair)”, the values for the binding ratio to standard in test [3] and in test [4] were 0.0025 and 0.003, respectively.
“… (residues 72-80 of HPV16 protein E6), synthesized with alanine instead of cysteine (peptide; other documents disagree on this pair)”: the binding ratio to standard in test [5] is 0.11.
On to “… (residues 79-87 of HPV16 protein E6) with alanine instead of cysteine (peptide; other documents disagree on this pair)”, for which the binding ratio to standard in test [3] worked out at 0.0044; in test [4], 0.0076.
For the substance “… (residues 80-88 of HPV16 protein E6), synthesized with alanine instead of cysteine (peptide; other documents disagree on this pair)”, the binding ratio to standard is 0.0064 in test [3] and 0.43 in test [4].
“… (residues 82-90 of HPV16 protein E6), synthesized with alanine instead of cysteine (peptide; other documents disagree on this pair)”: the binding ratio to standard in test [5] amounted to 0.046.
With “… (residues 84-92 of HPV16 protein E6), synthesized with alanine instead of cysteine (peptide; other documents disagree on this pair)”, in test [3], the binding ratio to standard was 0.0036.
With “… (residues 85-93 of HPV16 protein E6), synthesized with alanine instead of cysteine (peptide; other documents disagree on this pair)”, in test [5], the binding ratio to standard came to 0.0037.
With “… (residues 86-94 of HPV16 protein E7) (peptide)”, in test [1], the FI (Fluorescence Index) came to 2.5 and the MF (mean fluorescence) was 228.
Turning to “… (residues 87-95 of HPV16 protein E6), synthesized with alanine instead of cysteine (peptide; other documents disagree on this pair)”, the binding ratio to standard in test [5] is 0.12.
As for “… (residues 90-98 of HPV16 protein E7), synthesized with alanine instead of cysteine (peptide; other documents disagree on this pair)”, the binding ratio to standard in test [4] was 0.0012.
Consider “… (residues 97-105 of HPV16 protein E6), synthesized with alanine instead of cysteine (peptide; other documents disagree on this pair)”, for which the binding ratio to standard in test [3] was 0.0045.
As for “… (residues 107-115 of HPV16 protein E6), synthesized with alanine instead of cysteine (peptide; other documents disagree on this pair)”, the figures for the binding ratio to standard in test [3] and in test [4] were 3.7 and 0.012, respectively.
Consider “… (residues 139-147 of HPV16 protein E6), synthesized with alanine instead of cysteine (peptide; other documents disagree on this pair)”, for which the binding ratio to standard in test [2] was found to be 0.02.
Take “… (residues 140-148 of HPV16 protein E6), synthesized with alanine instead of cysteine (peptide; other documents disagree on this pair)”: the binding ratio to standard in test [4] was determined as 0.0012.
Regarding “… (residues 143-151 of HPV16 protein E6), synthesized with alanine instead of cysteine (peptide; other documents disagree on this pair)”, the binding ratio to standard in test [3] worked out at 0.18; in test [4], 0.0084.
On to “… (residues 144-152 of HPV16 protein E6), synthesized with alanine instead of cysteine (peptide; other documents disagree on this pair)”, for which the binding ratio to standard in test [2] worked out at 0.019.
Consider “… (residues 145-153 of HPV16 protein E6), synthesized with alanine instead of cysteine (peptide; other documents disagree on this pair)”, for which the binding ratio to standard in test [3] amounted to 0.02.
The same measure, in the same setting: as for “… (residues 146-154 of HPV16 protein E6), synthesized with alanine instead of cysteine (peptide; other documents disagree on this pair)”, the figure is 0.002.
